Results from publication PMC8552709, “Mechanistic Insights into the Capsule-Targeting Depolymerase from a Klebsiella pneumoniae Bacteriophage” (Microbiology Spectrum, 2021).

Biological target: the molecule itself
Assay: SEC; HiLoad 16/600 Superdex 200-pg column, 25 mM Tris (pH 8.0), 200 mM NaCl; peak checked by reducing SDS-PAGE

B1: DpK2 (gp02), capsule depolymerase / tailspike protein of Klebsiella phage RAD2 (enzyme, UniProt P0DTN8 1-907, looked up)
chain: MALYREGKAAMAADGTVTGTGTKWQSSLSLIRPGATIMFLSSPIQMAVVNKVVSDTEIKAITTSGAVVASTDYAILLSDSLTVDGLAQDVAETLRHYQSQETVIADAVEFFKSFDFDSLQNLANQIKADSESAESSAAAAAASESKAKTSEDNAKSSENAAKNSEVAAETTRDQIQQIIDNAGDQSTLVVLAQPDGFDSIGRVSSFAALRNLKPKKSGQHVLLTSYYDGWAAENKMPTGGGEFISSIGTATDDGGYIAAGPGYYWTRVVNNNSFTAEDFGCKTTATPPPNFNVLPAELFDNTAMMQAAFNLAISKSFKLNLSTGTYYFESSDTLRITGPIHIEGRPGTVFYHNPSNKANPKTDAFMNISGCSAGRISSINCFSNSYLGKGINFDRSVGDNRKLVLEHVYVDTFRWGFYVGEPECINQIEFHSCRAQSNYFQGIFIESFKEGQEYGHSAPVHFFNTICNGNGPTSFALGATYKTTKNEYIKVMDSVNDVGCQAYFQGLSNVQYIGGQLSGHGSPRNTSLATITQCNSFIIYGTDLEDINGFTTDGTAITADNIDAIESNYLKDISGAAIVVSSCPGFKIDSPHIFKIKTLSTIKLMNNTYNYEIGGFTPDEALKYNVWDANGLATNRISGVIHPRLVNSRLGINSVAFDNMSNKLDVSSLIHNETSQIVGLTPSTGSNVPHTRKMWSNGAMYSSTDLNNGFRLNYLSNHNEPLTPMHLYNEFSVSEFGGSVTESNALDEIKYIFIQTTYANSGDGRFIIQALDASGSVLSSNWYSPQSFNSTFPISGFVRFDVPTGAKKIRYGFVNSANYTGSLRSHFMSGFAYNKRFFLKIYAVYNDLGRYGQFEPPYSVAIDRFRVGDNTTQMPSIPASSATDVAGVNEVINSLLASLKANGFMSS
notes: DpK2, product of gp02 of Klebsiella phage RAD2 (genome GenBank MW655991); 98 kDa; the open reading frame was cloned between NcoI and XhoI of pPROEX htb; residues 191 to 906 are modelled in the cryo-EM structure; Homotrimer; The forward primer ([residues removed]) reads M-G-A-L-Y-R-E-G-K, so the NcoI site may add a glycine after the first methionine; no removal of the His tag is described; also …
  stoichiometry N: 3
